According to the DeepSol protein solubility set:

Test: soluble on expression in E. coli; label from the status in PepcDB or PDB records

| Sequence | soluble on expression in E. coli |
| --- | --- |
| MGSDKIHHHHHHMKGFLQTVTGPVAHTDMGLTLPHEHLFNDLSSVVDEPHYAFSQQLVGKKVSADLQWGLKHDPYCCADNMDRKEIDDVIFEINNFMSLGGRTIVDATGSESIGRDASALREVALKTGLNIVASSGPYLEKFESTRIHKPVELLASLIDKELNQGIGETDIRAGMIGEIGVSPAFTQAERNSLRAASLAQCNNPHTAMNIHMPGWLRLGDEVLDIVLEEMNVSPAKVSLAHSDPSGKDVVYQRKMLDRGVWLEFDMIGLDITFPKEGVAPGVQETADAVANLIALGYADQIVLSHDVFLKQMWAKNGGNGWGFVPNVFLAYLAARGVDNDTLRKLCIDNPARLLTA | not soluble |
| MTIKTTMGILAGKASHFVLSKLGRGSTLPGKIALKFDKDILDTLAKDYEIVVVTGTNGKTLTTALTVGILKEAYGEIVTNPSGANMITGITSTFLTAKRAKSGKKIAVLEIDEASLPKITEYITPSLFVFTNIFRDQMDRYGEIYTTYQMILDGAAKAPAATILANGDSPLFNSKELVNPVRFYGFDTEKHAPELTHYNTEGIVCPKCESILQYHLNTYANLGDYVCLNCDFHRPELDYKLTQLTKITNTTSEFIIDGQDYKINVGGLYNIYNALAAVSVAEFFGVVPEQIKAGFDKSRAIFGRQETFKIGDKSCTLVLIKNPVGASQALDMIKLADYPFSLSVLLNANYADGIDTSWIWDANFESILDMDIPEINAGGVRHSEIARRLRVTGYPEDKITQAEKLEDIMTLIEKQDCDHAYILATYTAMLEFRDILAQRHAVGKGMN | not soluble |
| MSLTNKELKKNLEDCVNCRLCYKVCPMMNTFGESPKNILRDIDKNKISYDEIAYSCMLCNACTEACPKDINLKEMFQNLRIKSYRENLKNTSKKFNLKVVQNHQKGSFSKFLTSKNNHKKIKRVFIPGCSLSGYNNEIIFKIKDYLIENLGKVEILLKCCGKPSKDIGNLELFESNLNDIENNLKIKEVDEIIVACENCYKTFGSAFKDIKVITLWEVINEFGVPKELKNKYSDLKEEFALHDPCPIKKEEQIHEAVRSILKDLGIKIVEFEKNRSKTECCGCGGMVGVTNKELWLSQKNKRANSTECENIVSYCESCVNTFKSSDKNALHILDFIFNEDVINGKAKSQKNISTINQWINRIKLANKVGKEGHHHHHH | not soluble |
| MRLLVSCVDSGSIKEVLCNIGTDTSVQSALQPFHVAPHLAEGLKAYVDRMWVISEDEAILARNSGVVELVKISKHLKENEALQVDPKGESKNEKSLSDDLPKFDISEFEITSSVSDLFDDAKLESLSSKSVKRTKLVDGFVTLCPIKKDSSNNTFVAATKSGLLHIIKKGEDKKLIKLASLGLKAPVEFLQLYDLEDTDTDKYIFAYGGEENLIKLVEIDSSFQSLKQIWEAKNVKNDRLDMRVPVWPMALRFLEPSPGKTEKGKLNYQFAAITRWSHLTKYSTQHGRKPFAQIDLLPNREPLSQMEVFDAKGENVVSSLGNFQSETFNELNVITTDYKKNVFKFDGNGRMLGKVGRDDITGSSTYIHVHDGKYLLQGGLDRYVRIFDIKTNKMLVKVYVGSRINFIVMLDDVEIEMPLSPSAKAAKGKQKRKVTELEEDADELWNKLEGKVAASKASKKSKI | soluble |
| MSLTVIITGASSGIGAGLAKSFAADGHLVIACGRDASRLAALQQLSPNISVRLFDMTDRDACRQALTGCFADLIILCAGTCEYLDHGQVDAALVERVMATNFLGPVNCLAALQTQLEAGDRVVLVSSMAHWLPFPRAEAYGASKAALTWFANSLRLDWEPKGVAVTVVSPGFVDTPLTRKNDFAMPGRVSVDRAVAAIRHGLAKGKNHIAFPTGFSLALRLLASLPSGIQRLLLRRMVRSEGHHHHHH | soluble |
| MSLEYKLTPSYLLKENMVLACGNILFADDGFSVHVIEKLQELLTEEEKENIALVDAGAGAPQQVLTLIDSEAKTKKIIVVDIIDYGLEPGEIKILTMDDLPKPEHTKVDSHDWPLSTTMYRVFRDAPHEIDFKVVGCQKKYVSEPDVVIELSEEVQNAVDVAVDIVLSELRGKPINEGHHHHHH | soluble |
| MGSDKIHHHHHHMSTKHAKAAEKFLENPVMAAWHNETLWMVRAKRDKMSKEVPEWEELRDKACALKLYSNSHLEELLLEFEKNATANGAIVHWAKDAEEYRAIVYEILSSHGVKHFVKSKSMLAEECELNPFLIEKGIDVVESDLGERILQLMNLAPSHIVLPAIHIKREQVGELFEKEMGTEKGNFDPTYLTHAARKNLRNIFLNAEAAMTGANFAVASTGDIVVCTNEGNADMGTSCPTLNIAAFGMEKIVPDMEALGVFTRLLARSATGQPITTYTSQYRNPREGGEYHIIIVDNGRSALLAHPDHIKTLNCIRCGACMNTCPVYRRSGGYSYTYFIPGPIGINLGMAHDPEKYYDNLSACSLCMSCSDVCPAKVDLAEQIYKWRQDLDKIGKANTGKKIMSGGMKVLMDHPTLFNAALWAAPVVNHLPRFMKYNDLDAWGKGRELPKFAGESFNEMWKKNKVQGKEENK | not soluble |
| MHSAKNEKCNACGGYRFSVNDGFKYCDRCGALFENFEELEEEEGGLQQTVGQGKVKVRKNDDQKRVRNNAAPVNLPKAQVMREALEKRSDFLQQQAIKGEELELPHDATPDYLYRLALRLFSFTQILAKSGHILVHELNFESRVQENILATFQKYLAHCQVAFCHSEQCGNDEHLRFVAVMENLRYEQEEREEKQRKRMAKRGKGVNALSKSAAAWTLLTQGNITEHLDIASDEDGDQDAQGGQQLDDLTLETTQNPDESIRVNDTTMGFVRKVTTALSKEALRRASQLILNLEMLVAILHSALMSSGYQTILTSDVVRWIREDRFRISRRSIRLIRQSQPERMKQGEVVKPTIVDYAEPFLRFPLYEIMRTCTIFHQSLKLASSMAPQSFESMSARLVDNLNLPSDILSRMLILESIIPCDVSPQLLKQVDVDMGYNCGQLAAMSPNVYYSGFLTSFGRKERGTQDADFCDEVLLSPDAKLIAYLLLTLRLTFQLDNAQCALQDDQYFDVDSWIHQLEMRIKCWQGHNMSLVMRSSSHVPEMVVDPPFGTNYLFHQEKGAPQVSCRRRQAGFQKCIPTEMSFNSTSTLPTVFDVRHMGLLTERCQMEALISPVKFQRTVLGNEIERDPLTFENVDRQSKNTFFKHFSAFKTTESCDTFEEYFPCAKNYLLFKRPDWIQNCTARQTHFNPVTGPIRFYLSNQSCDDLLGTAATSFSRRFQFLLDALSLIIGEDKKAVYAAFVMLEMHLTSSERIQSIRDDLLTSSPITLKCQKFRNSTHHIPRKYGVISEVPIDRIENLRYFRLSRQFFEHEEMPTTINMELIDYRNQEIRDSVTETEVQRAQNRIMKLCYEFEQFFGILAVKFW | soluble |
| MNLNNIRSSMTESTKSKDESMRSHLVKPGSVYDGIEPGELGETTESVQDRVRQLESRNSFLEEQCSQIESEKRYLENQKIKYEREIRKLQSELDRMKTSPLIIGTVIDVIKNDRIIVRSSNGPQFLVNVSQYIDEKKLLPGAKVALNQHTLAIAEVIPSTEEPFVAAMEVIESVEVDYDQIGGLDEQIQELQEAVELPLTSPERFARIGIEPPKGVLLYGLPGTGKTLLAKAVAHRTNATFIRVVGSELVQKYIGDGSKLVREIFEMARKKAPSIIFIDELDSIAARRLNETTGADREVQRTLMQLLAEMDGFDKRKNIRIIAATNRPDVLDPAILRPGRFDRLVHVPMPGIEARGKILKIHCEKMTLAEDIDFKKLAKATEGMSGADLKAIATEAGMFAVRRDKELVEMEEFLEAVEKVSMAADTQKMMPSNLPETMFV | not soluble |
| MSDNDELQQIAHLRREYTKGGLRRRDLPADPLTLFERWLSQACEAKLADPTAMVVATVDEHGQPYQRIVLLKHYDEKGMVFYTNLGSRKAHQIENNPRVSLLFPWHTLERQVMVIGKAERLSTLEVMKYFHSRPRDSQIGAWVSKQSSRISARGILESKFLELKQKFQQGEVPLPSFWGGFRVSLEQIEFWQGGEHRLHDRFLYQRENDAWKIDRLAP | soluble |
| GPLGSMKPINIQDQFLNQIRKENTYVTVFLLNGFQLRGQVKGFDNFTVLLESEGKQQLIYKHAISTFAPQKNVQLELE | soluble |
